In test [1] the target is T1, human FcγRIIb extracellular domain, His-tagged (human, UniProt P31994 43-217).
T1 construct: also called human FcgRIIb
T1 sequence: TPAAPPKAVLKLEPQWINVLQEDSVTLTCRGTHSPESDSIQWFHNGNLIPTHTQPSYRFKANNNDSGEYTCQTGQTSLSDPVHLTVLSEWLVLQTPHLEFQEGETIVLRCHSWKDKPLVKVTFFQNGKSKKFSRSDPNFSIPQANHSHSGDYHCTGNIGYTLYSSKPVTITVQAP
Briefly: SPR (Biacore), 25C, FcgR bound per antibody captured. (In general: SPR reads the build-up and loss of mass on a sensor chip optically.)

The target in test [2] is T2, human FcγRIIIaV extracellular domain, His-tagged (human, UniProt P08637 17-208).
T2 construct: also called human FcgRIIIaV
T2 sequence (P08637 17-208 F176V): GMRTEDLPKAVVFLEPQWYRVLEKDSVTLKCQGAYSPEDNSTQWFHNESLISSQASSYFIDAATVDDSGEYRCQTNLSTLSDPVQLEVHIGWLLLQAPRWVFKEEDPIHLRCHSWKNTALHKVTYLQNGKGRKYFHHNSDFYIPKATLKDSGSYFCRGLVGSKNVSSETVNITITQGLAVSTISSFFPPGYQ
Described as above.

The target in test [3] is T3, cynomolgus monkey FcγRIIIaS extracellular domain with C-terminal His-tag (cynomolgus monkey, UniProt A3RFZ7 21-206 (rhesus entry)).
T3 construct: also called cyno FcgRIIIaS; cynoFcγRIIIaS; not shown: His-tag added to the C-terminus
Put plainly: SPR (BIACORE); KD of SG1 / KD of variant. The protocol:
The kinetic analysis of interactions between these antibodies and FcγR was carried out using BIACORE® T200 or BIACORE® 4000 (GE Healthcare). HBS-EP+ (GE Healthcare) was used as the running buffer, and the measurement temperature was set to 25° C. […] After the measurement, the antibody captured on the chip was washed off by allowing reaction with 10 mM glycine-HCl, pH1.5 and 25 mM NaOH so that the chip was regenerated and used repeatedly. The sensorgrams obtained as measurement results were analyzed by the 1:1 Langmuir binding model using the BIACORE® Evaluation Software to calculate the binding rate constant ka (L/mol/s) and dissociation rate constant kd (1/s), and the dissociation constant KD (mol/L) was calculated from these values. […] Regarding such interactions, KD values were calculated using the following 1:1 binding model described in BIACORE® T100 Software Handbook BR1006-48 Edition AE.
Target sequence in this assay (A3RFZ7 21-206): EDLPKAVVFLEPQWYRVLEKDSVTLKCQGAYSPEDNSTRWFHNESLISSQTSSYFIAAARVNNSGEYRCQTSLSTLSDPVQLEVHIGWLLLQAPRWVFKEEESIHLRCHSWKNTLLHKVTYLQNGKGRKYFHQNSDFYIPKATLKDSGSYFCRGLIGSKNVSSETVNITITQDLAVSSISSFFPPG

In test [4] the target is T4, human FcγRIIaR extracellular domain with C-terminal His-tag (human, UniProt P12318 34-217).
T4 construct: also called human FcgRIIaR; FcγRIIa type R; not shown: His-tag added to the C-terminus
T4 chain: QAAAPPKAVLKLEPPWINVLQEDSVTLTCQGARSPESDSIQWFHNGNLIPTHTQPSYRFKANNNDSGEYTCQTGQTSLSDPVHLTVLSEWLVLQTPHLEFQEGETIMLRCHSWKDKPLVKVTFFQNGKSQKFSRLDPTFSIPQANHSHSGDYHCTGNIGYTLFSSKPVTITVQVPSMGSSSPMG
Briefly: SPR (BIACORE), antibody captured, FcgR analyte.

Test [5] addresses T3, cynomolgus monkey FcγRIIIaS …. Put plainly: SPR (BIACORE), antibody captured, FcgR analyte.
T3 sequence (A3RFZ7 21-206): as the sequence (A3RFZ7 21-206) above
In test [6] the target is T5, cynomolgus monkey FcγRIIb extracellular domain with C-terminal His-tag (cynomolgus monkey).
T5 construct: also called cyno FcgRIIb; cynoFcγRIIb; not shown: His-tag added to C-terminus
T5 chain: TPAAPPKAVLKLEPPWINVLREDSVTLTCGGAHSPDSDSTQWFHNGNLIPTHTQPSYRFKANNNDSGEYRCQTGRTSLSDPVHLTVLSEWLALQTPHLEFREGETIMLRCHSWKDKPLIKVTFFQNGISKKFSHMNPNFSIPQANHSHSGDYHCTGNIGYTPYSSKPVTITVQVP
Briefly: SPR Biacore, antibody captured, FcgR analyte.

The target in test [7] is T6, cynomolgus monkey FcγRIIIaS extracellular domain with C-terminal His-tag (cynomolgus monkey, UniProt A3RFZ7 21-206 (rhesus entry)).
T6 construct: also called cyno FcgRIIIaS; cynoFcγRIIIaS; not shown: His-tag added to C-terminus
Briefly: SPR Biacore, antibody captured, FcgR analyte.
Target sequence in this assay (A3RFZ7 21-206): as the sequence (A3RFZ7 21-206) above

For test [8], the target named is T7, cynomolgus monkey FcγRIIa3 extracellular domain with C-terminal His-tag (cynomolgus monkey).
T7 construct: also called cyno FcgRIIa3; cynoFcγRIIa3; not shown: His-tag added to the C-terminus
T7 chain: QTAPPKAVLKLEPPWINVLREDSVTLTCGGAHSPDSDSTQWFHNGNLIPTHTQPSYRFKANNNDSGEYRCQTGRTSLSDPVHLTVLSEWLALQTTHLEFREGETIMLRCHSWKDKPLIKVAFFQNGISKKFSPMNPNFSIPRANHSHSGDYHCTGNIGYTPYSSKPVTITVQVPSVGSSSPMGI
Put plainly: SPR (BIACORE), antibody captured, FcgR analyte.

The target in test [9] is T8, cynomolgus monkey FcγRIIa3 extracellular domain with C-terminal His-tag (cynomolgus monkey).
T8 construct: also called cyno FcgRIIa3; cynoFcγRIIa3; not shown: His-tag added to C-terminus
T8 chain: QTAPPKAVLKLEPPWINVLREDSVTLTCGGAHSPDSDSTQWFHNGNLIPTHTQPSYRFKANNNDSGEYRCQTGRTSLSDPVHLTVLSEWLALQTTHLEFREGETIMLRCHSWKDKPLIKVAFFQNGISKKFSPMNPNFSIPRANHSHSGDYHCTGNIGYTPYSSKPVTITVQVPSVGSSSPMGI
Put plainly: SPR Biacore, antibody captured, FcgR analyte.

Test [10] addresses T9, human FcγRIIb extracellular domain with C-terminal His-tag (human, UniProt P31994 43-217).
T9 construct: also called human FcgRIIb; not shown: His-tag added to C-terminus
T9 sequence: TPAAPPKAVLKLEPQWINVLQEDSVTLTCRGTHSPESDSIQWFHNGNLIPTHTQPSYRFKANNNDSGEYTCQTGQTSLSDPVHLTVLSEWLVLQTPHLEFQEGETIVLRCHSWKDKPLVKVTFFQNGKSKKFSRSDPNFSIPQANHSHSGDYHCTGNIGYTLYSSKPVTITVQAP
Briefly: SPR Biacore, antibody captured, FcgR analyte.

B1: GpH7-B3 V266F / GpL16-k0 (antibody, human IgG1, kappa)
heavy: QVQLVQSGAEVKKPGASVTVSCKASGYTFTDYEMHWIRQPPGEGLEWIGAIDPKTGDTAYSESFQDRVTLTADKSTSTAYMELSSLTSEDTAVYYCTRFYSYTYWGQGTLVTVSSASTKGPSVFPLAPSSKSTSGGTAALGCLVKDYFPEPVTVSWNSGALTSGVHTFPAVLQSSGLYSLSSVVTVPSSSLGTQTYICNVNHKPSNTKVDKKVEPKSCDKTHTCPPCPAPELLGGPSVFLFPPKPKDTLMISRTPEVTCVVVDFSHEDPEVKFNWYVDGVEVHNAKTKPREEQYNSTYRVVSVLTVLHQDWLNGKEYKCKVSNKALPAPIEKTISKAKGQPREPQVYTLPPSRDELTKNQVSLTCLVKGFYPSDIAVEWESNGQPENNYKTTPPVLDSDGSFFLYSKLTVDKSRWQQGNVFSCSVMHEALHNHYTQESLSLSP
light: DIVMTQSPLSLPVTPGEPASISCQASESLVHSNRNTYLHWYLQKPGQSPQLLIYKVSNRFSGVPDRFSGSGSGTDFTLKISRVEAEDVGVYYCSQNTHVPPTFGQGTKVEIERTVAAPSVFIFPPSDEQLKSGTASVVCLLNNFYPREAKVQWKVDNALQSGNSQESVTEQDSKDSTYSLSSTLTLSKADYEKHKVYACEVTHQGLSSPVTKSFNRGEC
notes: also called B3 variant V266F
With B1, the figures for the “Binding to human FcgRs (parent B3 = 100)” value in test [1] and in [2] were 88 and 2, respectively.

B2: M103205H795-MY049/M103202L889-SK1 (antibody, human IgG1, kappa, name in EU numbering)
heavy: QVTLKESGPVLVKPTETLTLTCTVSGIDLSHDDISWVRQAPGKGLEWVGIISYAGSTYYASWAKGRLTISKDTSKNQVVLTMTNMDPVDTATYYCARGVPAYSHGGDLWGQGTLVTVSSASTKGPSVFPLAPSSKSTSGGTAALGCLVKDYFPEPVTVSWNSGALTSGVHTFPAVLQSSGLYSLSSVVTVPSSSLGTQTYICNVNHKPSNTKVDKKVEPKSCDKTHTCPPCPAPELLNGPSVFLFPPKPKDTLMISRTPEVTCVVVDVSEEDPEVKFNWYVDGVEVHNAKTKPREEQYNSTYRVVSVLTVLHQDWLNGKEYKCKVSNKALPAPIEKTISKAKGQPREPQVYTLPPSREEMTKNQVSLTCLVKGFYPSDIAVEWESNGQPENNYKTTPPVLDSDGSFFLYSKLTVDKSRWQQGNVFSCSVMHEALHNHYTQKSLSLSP
light: DIVMTQSPATLSLSPGERATLSCTSSQSVYHANWLSWFQQKPGQPPKLLIYWASTLAYGVPSRFSGSGSGTDFTLTISSLQPEDAATYYCAGGYGGGRYAFGQGTKVEIKRTVAAPSVFIFPPSDEQLKSGTASVVCLLNNFYPREAKVQWKVDNALQSGNSQESVTEQDSKDSTYSLSSTLTLSKADYEKHKVYACEVTHQGLSSPVTKSFNRGEC
notes: Fc variant of MS1032LO06-SG1; positions in EU numbering
With B2, the “KD fold (SG1 = 1)” value in test [3] was determined as 0.08 fold. Also, the Kd (commonly a measure of binding affinity in units of concentration) is 7.8 µM in test [4] and 4.5 µM in [5].

B3: M103205H795-MY350/M103202L889-SK1 (antibody, human IgG1, kappa, name in EU numbering)
heavy: QVTLKESGPVLVKPTETLTLTCTVSGIDLSHDDISWVRQAPGKGLEWVGIISYAGSTYYASWAKGRLTISKDTSKNQVVLTMTNMDPVDTATYYCARGVPAYSHGGDLWGQGTLVTVSSASTKGPSVFPLAPSSKSTSGGTAALGCLVKDYFPEPVTVSWNSGALTSGVHTFPAVLQSSGLYSLSSVVTVPSSSLGTQTYICNVNHKPSNTKVDKKVEPKSCDKTHTCPPCPAPELWNGPSVFLFPPKPKDTLMISRTPEVTCVVVDVSEEDPEVKFNWYVDGVEVHNAKTKPREEQYNSTYRVVSVLTVLHQDWLNGKEYKCKVSNKALPKPIEKTISKAKGQPREPQVYTLPPSREEMTKNQVSLTCLVKGFYPSDIAVEWESNGQPENNYKTTPMVLDSDGSFFLYSKLTVDKSRWQQGNVFSCSVMHEALHNHYTQKSLSLSP
light: DIVMTQSPATLSLSPGERATLSCTSSQSVYHANWLSWFQQKPGQPPKLLIYWASTLAYGVPSRFSGSGSGTDFTLTISSLQPEDAATYYCAGGYGGGRYAFGQGTKVEIKRTVAAPSVFIFPPSDEQLKSGTASVVCLLNNFYPREAKVQWKVDNALQSGNSQESVTEQDSKDSTYSLSSTLTLSKADYEKHKVYACEVTHQGLSSPVTKSFNRGEC
notes: substitutions in EU numbering, introduced into M103205H795-SG1
As to B3, the “KD fold (SG1 = 1)” value in test [6] amounted to 3.2 fold; in test [7] it was 0.05 fold.

B4: M103205H795-MY440/M103202L889-SK1 (antibody, human IgG1, kappa, name in EU numbering)
heavy: QVTLKESGPVLVKPTETLTLTCTVSGIDLSHDDISWVRQAPGKGLEWVGIISYAGSTYYASWAKGRLTISKDTSKNQVVLTMTNMDPVDTATYYCARGVPAYSHGGDLWGQGTLVTVSSASTKGPSVFPLAPSSKSTSGGTAALGCLVKDYFPEPVTVSWNSGALTSGVHTFPAVLQSSGLYSLSSVVTVPSSSLGTQTYICNVNHKPSNTKVDKKVEPKSCDKTHTCPPCPAPELWNGPSVFLFPPKPKDTLMISRTPEVTCVVVDVSDEDPEVKFNWYVDGVEVHNAKTKPREELYNSTYRVVSVLTVLHQDWLNGKEYKCKVSNKALPKPIEKTISKAKGQPREPQVYTLPPSREEMTKNQVSLTCLVKGFYPSDIAVEWESNGQPENNYKTTPPVLDSDGSFFLYSKLTVDKSRWQQGNVFSCSVMHEALHNHYTQKSLSLSP
light: DIVMTQSPATLSLSPGERATLSCTSSQSVYHANWLSWFQQKPGQPPKLLIYWASTLAYGVPSRFSGSGSGTDFTLTISSLQPEDAATYYCAGGYGGGRYAFGQGTKVEIKRTVAAPSVFIFPPSDEQLKSGTASVVCLLNNFYPREAKVQWKVDNALQSGNSQESVTEQDSKDSTYSLSSTLTLSKADYEKHKVYACEVTHQGLSSPVTKSFNRGEC
notes: as for B2
For B4, the Kd came to 1.1 µM in test [4], 4.8 µM in test [8] and 9.3 µM in [5].

B5: M103205H795-MY288/M103202L889-SK1 (antibody, human IgG1, kappa, name in EU numbering)
heavy: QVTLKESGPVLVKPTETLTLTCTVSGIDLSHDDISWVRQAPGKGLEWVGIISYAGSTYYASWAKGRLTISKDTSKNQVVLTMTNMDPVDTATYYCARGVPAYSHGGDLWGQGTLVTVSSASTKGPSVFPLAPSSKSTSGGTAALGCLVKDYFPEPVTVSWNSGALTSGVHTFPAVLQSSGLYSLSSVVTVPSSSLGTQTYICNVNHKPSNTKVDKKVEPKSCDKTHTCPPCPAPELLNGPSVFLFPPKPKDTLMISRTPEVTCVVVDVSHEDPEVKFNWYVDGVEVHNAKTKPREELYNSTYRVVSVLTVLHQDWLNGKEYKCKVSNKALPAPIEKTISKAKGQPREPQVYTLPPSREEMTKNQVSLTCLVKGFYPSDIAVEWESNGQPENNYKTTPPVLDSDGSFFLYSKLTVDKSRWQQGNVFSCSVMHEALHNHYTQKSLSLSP
light: DIVMTQSPATLSLSPGERATLSCTSSQSVYHANWLSWFQQKPGQPPKLLIYWASTLAYGVPSRFSGSGSGTDFTLTISSLQPEDAATYYCAGGYGGGRYAFGQGTKVEIKRTVAAPSVFIFPPSDEQLKSGTASVVCLLNNFYPREAKVQWKVDNALQSGNSQESVTEQDSKDSTYSLSSTLTLSKADYEKHKVYACEVTHQGLSSPVTKSFNRGEC
notes: as for B3
Take B5: the “KD fold (SG1 = 1)” value was determined as 1.5 fold in test [6], 1.5 fold in test [9], 0.03 fold in test [7] and 0.5 fold in test [10].

B6: M103205H795-MY204/M103202L889-SK1 (antibody, human IgG1, kappa, name in EU numbering)
heavy: QVTLKESGPVLVKPTETLTLTCTVSGIDLSHDDISWVRQAPGKGLEWVGIISYAGSTYYASWAKGRLTISKDTSKNQVVLTMTNMDPVDTATYYCARGVPAYSHGGDLWGQGTLVTVSSASTKGPSVFPLAPSSKSTSGGTAALGCLVKDYFPEPVTVSWNSGALTSGVHTFPAVLQSSGLYSLSSVVTVPSSSLGTQTYICNVNHKPSNTKVDKKVEPKSCDKTHTCPPCPAPELLNGPVVFLFPPKPKDTLMISRTPEVTCVVVDVSEEDPEVKFNWYVDGVEVHNAKTKPREELYNSTYRVVSVLTVLHQDWLNGKEYKCKVSNKALPKPIEKTISKAKGQPREPQVYTLPPSREEMTKNQVSLTCLVKGFYPSDIAVEWESNGQPENNYKTTPPVLDSDGSFFLYSKLTVDKSRWQQGNVFSCSVMHEALHNHYTQKSLSLSP
light: DIVMTQSPATLSLSPGERATLSCTSSQSVYHANWLSWFQQKPGQPPKLLIYWASTLAYGVPSRFSGSGSGTDFTLTISSLQPEDAATYYCAGGYGGGRYAFGQGTKVEIKRTVAAPSVFIFPPSDEQLKSGTASVVCLLNNFYPREAKVQWKVDNALQSGNSQESVTEQDSKDSTYSLSSTLTLSKADYEKHKVYACEVTHQGLSSPVTKSFNRGEC
notes: as for B3
In the case of B6, the “KD fold (SG1 = 1)” value in test [6] came to 2.2 fold; in test [9], 3.3 fold; in test [7], 0.1 fold.

B7: M103205H795-MY200/M103202L889-SK1 (antibody)
heavy: QVTLKESGPVLVKPTETLTLTCTVSGIDLSHDDISWVRQAPGKGLEWVGIISYAGSTYYASWAKGRLTISKDTSKNQVVLTMTNMDPVDTATYYCARGVPAYSHGGDLWGQGTLVTVSSASTKGPSVFPLAPSSKSTSGGTAALGCLVKDYFPEPVTVSWNSGALTSGVHTFPAVLQSSGLYSLSSVVTVPSSSLGTQTYICNVNHKPSNTKVDKKVEPKSCDKTHTCPPCPAPELLNGPVVFLFPPKPKDTLMISRTPEVTCVVVDVSEEDPEVKFNWYVDGVEVHNAKTKPREEQYNSTYRVVSVLTVLHQDWLNGKEYKCKVSNKALPKPIEKTISKAKGQPREPQVYTLPPSREEMTKNQVSLTCLVKGFYPSDIAVEWESNGQPENNYKTTPPVLDSDGSFFLYSKLTVDKSRWQQGNVFSCSVMHEALHNHYTQKSLSLSP
light: DIVMTQSPATLSLSPGERATLSCTSSQSVYHANWLSWFQQKPGQPPKLLIYWASTLAYGVPSRFSGSGSGTDFTLTISSLQPEDAATYYCAGGYGGGRYAFGQGTKVEIKRTVAAPSVFIFPPSDEQLKSGTASVVCLLNNFYPREAKVQWKVDNALQSGNSQESVTEQDSKDSTYSLSSTLTLSKADYEKHKVYACEVTHQGLSSPVTKSFNRGEC
notes: Fc variant of MS1032LO06-SG1; EU numbering; printed S2369V is probably S239V
In the case of B7, the Kd in test [4] worked out at 2.7 µM; in test [5], 4.4 µM.

The values are drawn from patent US20250076311A1 (Chugai, published 2025).
